B1: anti-DLL3 trispecific protein 1E04 (protein, part only; not given: anti-CD3 fragment and anti-albumin sdAb, part only)
chain, part: EVQLVESGGGLVQPGGSLTLSCVASGSTSRINGMGWYRRAPGKQRELPAGISSDGSKAYADSVKGRFTISRDNAKNSVYLQMNSLRAEDTAVYYCYYFRTASGTSMRYWGQGTLVTVSSGGGGSGGGSGGGGSGGGSHHHHHH
B2: anti-DLL3 trispecific protein 1E08 (protein, part only; not given: anti-CD3 fragment and anti-albumin sdAb, part only)
chain, part: B1 chain, part with S27K, R30S, G33A, P48V, A58V, Y59I, A101V, S102L, T104S
B3: anti-DLL3 trispecific protein 2F01 (protein, part only; not given: anti-CD3 and anti-albumin domains, part only)
chain, part: B1 chain, part with R30S, G33A, P48V, A58V, A60S, T100L, A101V, T104S
B4: anti-DLL3 trispecific protein 2D05 (protein, part only; not given: anti-CD3 fragment and anti-albumin domain, part only)
chain, part: B1 chain, part with G33A, P48V, A58V, T104S
B5: anti-DLL3 trispecific protein 1D012 (protein, part only; not given: anti-CD3 fragment and anti-albumin domain, part only)
chain, part: B1 chain, part with R30H, G33A, P48V, K57R, A58V, A101V, T104G
B6: anti-DLL3 trispecific protein 2F02 (protein, part only; not given: anti-CD3 fragment and anti-albumin sdAb, part only)
chain, part: B1 chain, part with R30S, G33A, M34V, P48V, A58V, D61G, A101V, T104S, S105Y
B7: anti-DLL3 trispecific protein 1C04 (protein, part only; not given: anti-CD3 fragment and anti-albumin sdAb, part only)
chain, part: B1 chain, part with S27N, R30S, G33A, G35A, P48V, A58V, A101V, T104S
B8: anti-DLL3 trispecific protein 2A06 (protein, part only; not given: CD3 binder and albumin binder, part only)
chain, part: B1 chain, part with R30S, I31R, G33A, P48V, A58V, Y59T, A101R, T104S
B9: anti-DLL3 trispecific protein 2A05 (protein, part only; not given: CD3 fragment and albumin sdAb, part only)
chain, part: B1 chain, part with S27R, R30S, G33A, P48V, A58V, A60N, A101V
B10: anti-DLL3 trispecific protein 1F01 (protein, part only; not given: CD3 fragment and albumin sdAb, part only)
chain, part: B1 chain, part with R30S, G33A, P48V, A58V, A60G, A101V, G103R, T104S
B11: anti-DLL3 trispecific protein 1D04 (protein, part only; not given: CD3 fragment and albumin sdAb, part only)
chain, part: B1 chain, part with R30S, I31K, G33A, P48V, A58V, A101V, T104A
B12: anti-DLL3 trispecific protein 2A03 (protein, part only; not given: CD3 fragment and albumin sdAb, part only)
chain, part: B1 chain, part with S27T, R30S, G33A, P48V, A58V, A60G, A101V, T104S, S105A
B13: anti-DLL3 trispecific protein 1B03 (protein, part only; not given: anti-CD3 and anti-albumin domains, part only)
chain, part: B1 chain, part with S27K, R30S, G33A, G35A, P48V, A58V, A60T, A101V, T104S, M106A
B14: anti-DLL3 trispecific protein 1B07 (protein, part only; not given: anti-CD3 and anti-albumin domains, part only)
chain, part: B1 chain, part with T28G, R30S, G33A, P48V, A58V, A60S, T100H, A101V, T104S
B15: anti-DLL3 trispecific protein 1C012 (protein, part only; not given: anti-CD3 and anti-albumin domains, part only)
chain, part: B1 chain, part with S27I, R30S, G33A, P48V, A58V, D61G, A101V, S102R, T104S
B16: anti-DLL3 trispecific protein 1C06 (protein, part only; not given: anti-CD3 and anti-albumin domains, part only)
chain, part: B1 chain, part with R30I, G33A, P48V, A58V, A60E, T100A, A101V, T104S
B17: anti-DLL3 trispecific protein 2E09 (protein, part only; not given: anti-CD3 and anti-albumin domains, part only)
chain, part: B1 chain, part with T28V, R30S, G33A, P48V, A58V, D61S, V63A, A101L, T104S
B18: anti-DLL3 trispecific protein 1H010 (protein, part only; not given: anti-CD3 fragment and anti-albumin sdAb, part only)
chain, part: B1 chain, part with S29R, R30S, G33A, P48V, A58V, A60N, A101V, T104S, Y108F
B19: anti-DLL3 trispecific protein 1G07 (protein, part only; not given: anti-CD3 and anti-albumin domains, part only)
chain, part: B1 chain, part with R30S, G33A, P48V, A58V, Y59V, A101Y, T104S
B20: anti-DLL3 trispecific protein 1A07 (protein, part only; not given: anti-CD3 fragment and anti-albumin domain, part only)
chain, part: B1 chain, part with T28I, R30S, G33A, P48V, A58V, T100M, A101V, T104S
B21: anti-DLL3 trispecific protein 1F06 (protein, part only; not given: anti-CD3 and anti-albumin domains, part only)
chain, part: B1 chain, part with S27T, R30S, G33A, P48V, A58V, Y59I, A101V, S102L, T104S
B22: anti-DLL3 trispecific protein 3A02 (protein, part only; not given: CD3 fragment and albumin sdAb, part only)
chain, part: EVQLVESGGGLVQPGGSLTLSCAASGSSVSFLSLAWYRQAPGKKRELVAGISADGSTAYIDSVKGRFTISRDNAKNSVYLQMNSLRAEDTAVYYCYAYRWRTRYTYWGQGTLVTVSSGGGGSGGGSGGGGSGGGSHHHHHH
B23: anti-DLL3 trispecific protein 4E010 (protein, part only; not given: anti-CD3 and anti-albumin domains, part only)
chain, part: B22 chain, part with S30K, L34M, A58D
B24: anti-DLL3 trispecific protein 3C02 (protein, part only; not given: anti-CD3 and anti-albumin domains, part only)
chain, part: B22 chain, part with S30R, L34M, A58I
B25: anti-DLL3 trispecific protein 4A02 (protein, part only; not given: anti-CD3 fragment and anti-albumin domain, part only)
chain, part: B22 chain, part with S30R, L34M, A53N, A58D, R101K
B26: anti-DLL3 trispecific protein 3H01 (protein, part only; not given: CD3 binder and albumin binder, part only)
chain, part: B22 chain, part with A23V, S30K, L34M, A53G, A58T, R101T, Y104R
B27: anti-DLL3 trispecific protein 3C05 (protein, part only; not given: anti-CD3 and anti-albumin domains, part only)
chain, part: B22 chain, part with A23V, S27T, L34M, A58T, R101T, Y104R
B28: anti-DLL3 trispecific protein 3G04 (protein, part only; not given: CD3 binder and albumin binder, part only)
chain, part: B22 chain, part with A23V, S27T, L34M, A58I, R101T, Y104R
B29: anti-DLL3 trispecific protein 3A04 (protein, part only; not given: CD3 binder and albumin binder, part only)
chain, part: B22 chain, part with S28Q, L34M, A53R, A58D, R101T, T105I
B30: anti-DLL3 trispecific protein 4F011 (protein, part only; not given: anti-CD3 and anti-albumin domains, part only)
chain, part: B22 chain, part with S28K, L34M, T57K, A58D, R101T
B31: anti-DLL3 trispecific protein 4F09 (protein, part only; not given: anti-CD3 and anti-albumin domains, part only)
chain, part: B22 chain, part with S28R, L34M, A58D, D61E, R101T
B32: anti-DLL3 trispecific protein 3B011 (protein, part only; not given: anti-CD3 and anti-albumin domains, part only)
chain, part: B22 chain, part with L34M, T57A, A58D, R101V
B33: anti-DLL3 trispecific protein 4E09 (protein, part only; not given: anti-CD3 fragment and anti-albumin sdAb, part only)
chain, part: B22 chain, part with L34S, A58L, R101T, Y104S
B34: anti-DLL3 trispecific protein 4A09 (protein, part only; not given: anti-CD3 and anti-albumin domains, part only)
chain, part: B22 chain, part with S30K, L34M, A58D, D61G, R101T, Y104V
B35: anti-DLL3 trispecific protein 3H010 (protein, part only; not given: anti-CD3 and anti-albumin domains, part only)
chain, part: B22 chain, part with L34M, R101T, Y104R
B36: anti-DLL3 trispecific protein 4H08 (protein, part only; not given: anti-CD3 fragment and anti-albumin sdAb, part only)
chain, part: B22 chain, part with S30K, L34M, A58D, I60V, R101S
B37: anti-DLL3 trispecific protein 4G09 (protein, part only; not given: anti-CD3 fragment and anti-albumin domain, part only)
chain, part: B22 chain, part with S28R, L34M, A53Y, A58D, R101T, Y104R
B38: anti-DLL3 trispecific protein 4C05 (protein, part only; not given: anti-CD3 and anti-albumin domains, part only)
chain, part: B22 chain, part with F31N, L34M, R101T, Y104R
B39: anti-DLL3 trispecific protein 4A05 (protein, part only; not given: anti-CD3 and anti-albumin domains, part only)
chain, part: B22 chain, part with A58D, R101K, Y104R
B40: anti-DLL3 trispecific protein 4F08 (protein, part only; not given: anti-CD3 and anti-albumin domains, part only)
chain, part: B22 chain, part with S28K, L34M
B41: anti-DLL3 trispecific protein 4G05 (protein, part only; not given: CD3 fragment and albumin sdAb, part only)
chain, part: B22 chain, part with F31I, L34M, A58I, R101H
B42: anti-DLL3 trispecific protein 4D04 (protein, part only; not given: anti-CD3 fragment and anti-albumin sdAb, part only)
chain, part: B22 chain, part with L34I, A53K, A58D, R101T, Y104M
B43: anti-DLL3 trispecific protein 4F04 (protein, part only; not given: anti-CD3 fragment and anti-albumin sdAb, part only)
chain, part: B22 chain, part with G26R, L34M, A53T, A58D, R101L

Substitutions are numbered along the chain they refer to.

Chain of biotinylated human DLL3 protein expressed as a human IgG1 fusion protein (human) (Q9NYJ7 other isoform, or with tags, fused parts or gaps): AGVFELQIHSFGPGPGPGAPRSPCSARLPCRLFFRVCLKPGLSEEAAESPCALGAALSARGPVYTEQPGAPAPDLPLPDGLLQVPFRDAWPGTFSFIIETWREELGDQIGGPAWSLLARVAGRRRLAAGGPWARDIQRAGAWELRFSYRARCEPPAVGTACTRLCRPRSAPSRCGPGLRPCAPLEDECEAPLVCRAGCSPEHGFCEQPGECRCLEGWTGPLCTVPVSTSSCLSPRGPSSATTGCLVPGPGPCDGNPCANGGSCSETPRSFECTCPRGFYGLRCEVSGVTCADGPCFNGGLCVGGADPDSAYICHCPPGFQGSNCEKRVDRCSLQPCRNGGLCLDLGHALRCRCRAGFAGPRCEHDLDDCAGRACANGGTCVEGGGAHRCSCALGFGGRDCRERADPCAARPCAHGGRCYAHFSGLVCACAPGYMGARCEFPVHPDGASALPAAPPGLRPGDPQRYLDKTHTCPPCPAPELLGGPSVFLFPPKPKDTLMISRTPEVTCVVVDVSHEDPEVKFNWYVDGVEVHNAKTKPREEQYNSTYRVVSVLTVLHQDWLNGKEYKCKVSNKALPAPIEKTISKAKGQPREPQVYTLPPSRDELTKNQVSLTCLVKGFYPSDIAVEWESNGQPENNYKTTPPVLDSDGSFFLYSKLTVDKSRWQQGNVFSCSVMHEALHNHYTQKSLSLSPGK

The assay concerns the target biotinylated human DLL3 protein expressed as a human IgG1 fusion protein (human) (UniProt Q9NYJ7). In words: Octet BLI; biotinylated huDLL3-IgG1 fusion on streptavidin tips; single 50 nM; conditioned medium. (Biolayer interferometry detects binding as a change in optical thickness at a sensor tip.)
One may read the Kd as a measure of binding affinity in units of concentration. The molecule B1 gave a Kd of 8.1 nM.

B2: the Kd was 9.4 nM. This Kd and that of the molecule before are within 1.5-fold of each other.

The molecule B3 showed a dissociation constant Kd of 9.2 nM.

B4 had a dissociation constant (Kd) of 8.3 nM.

Turning to B5, the Kd is 9.3 nM. This Kd and that of the molecule before are within 1.5-fold of each other.

With B6, the Kd came to 9.6 nM.

For B7, the dissociation constant (Kd) is 8.1 nM.

Regarding B8, the Kd worked out at 8.9 nM.

B9 gave a Kd of 8.9 nM.

For B10, the dissociation constant Kd amounted to 9.4 nM. This Kd and that of the molecule before are within 1.5-fold of each other.

In turn, B11 showed a Kd of 9.7 nM.

Molecule B12 displayed a Kd of 8.2 nM. The Kd values of the last two molecules are within 1.5-fold of each other.

The molecule B13 came in with a dissociation constant Kd of 8.7 nM. The Kd values of the last two molecules are within 1.5-fold of each other.

B14 came in with a Kd of 8.9 nM.

Molecule B15 returned a dissociation constant Kd of 8.5 nM.

As for B16, the dissociation constant Kd came out at 8.3 nM.

B17 registered a Kd of 8.5 nM.

On to B18, for which the Kd stood at 8.4 nM. The Kd values of the last two molecules are within 1.5-fold of each other.

B19 registered a Kd of 8.3 nM. This Kd and that of the molecule before are within 1.5-fold of each other.

In the case of B20, the dissociation constant (Kd) stood at 8.6 nM.

B21 came in with an equilibrium dissociation constant (Kd) of 8.9 nM.

B22 displayed a Kd of 8.1 nM.

Molecule B23 displayed a dissociation constant (Kd) of 9 nM.

As to B24, the Kd came to 9.1 nM.

The molecule B25 showed a Kd of 9 nM.

In turn, B26 had a dissociation constant Kd of 9 nM. This counts as single-digit nanomolar.

In turn, B27 came in with a dissociation constant (Kd) of 8.2 nM.

For B28, the equilibrium dissociation constant (Kd) turned out to be 8.8 nM.

On to B29, for which the Kd came out at 9.2 nM.

In the case of B30, the dissociation constant (Kd) came to 8.2 nM.

Turning to B31, the Kd came to 8.8 nM.

As for B32, the equilibrium dissociation constant (Kd) turned out to be 9 nM.

B33 came in with a dissociation constant (Kd) of 9.1 nM.

As to B34, the Kd amounted to 9 nM.

For B35, the dissociation constant Kd worked out at 8.6 nM.

The molecule B36 registered a Kd of 8.9 nM. This Kd and that of the molecule before are within 1.5-fold of each other.

For the molecule B37, the equilibrium dissociation constant (Kd) came out at 8.8 nM.

As to B38, the Kd worked out at 8.3 nM.

B39 registered a Kd of 9.4 nM. This Kd and that of the molecule before are within 1.5-fold of each other.

B40 displayed a Kd of 9 nM. The Kd values of the last two molecules are within 1.5-fold of each other.

In turn, B41 gave a Kd of 9.7 nM. This Kd and that of the molecule before are within 1.5-fold of each other.

Molecule B42 had a Kd of 8.6 nM.

In the case of B43, the equilibrium dissociation constant (Kd) is 9.8 nM.

Values taken from patent publication US20200095340A1.
